In patent publication JP2023053786A (dated 2023):

Experiments:
[1] = biological target: T1, HBs抗原(Prosec Tany Technology Ltd. HBS 875), biotinylated (Hepatitis B virus (adr型), UniProt P03140 175-400, biotinylated with EZ-Link NHS-PEG4-biotin (sites not given)); assay: BLI (Octet), as in Example 3: biotinylated HBs antigen on streptavidin sensor
T1 construct: also called ビオチン化HBs抗原; adr型HBs抗原(PROSPEC社製)
T1 chain: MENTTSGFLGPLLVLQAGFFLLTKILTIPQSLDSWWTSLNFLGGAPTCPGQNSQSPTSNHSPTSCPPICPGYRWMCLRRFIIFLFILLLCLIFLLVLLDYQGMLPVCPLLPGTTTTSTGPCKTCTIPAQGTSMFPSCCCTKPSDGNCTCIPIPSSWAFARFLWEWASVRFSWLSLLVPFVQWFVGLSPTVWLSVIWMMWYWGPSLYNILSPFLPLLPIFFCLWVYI

[2] = biological target: T1, HBs抗原(Prosec Tany Technology Ltd. HBS …; assay: BLI (Octet RED96e), biotinylated HBs antigen on streptavidin sensor, antibody in solution

| Binder | Kd [1] [pM] | Kd [2] [pM] |
| --- | --- | --- |
| ヒト化HB1170 (antibody, V domains shown, also called humanized HB1170; ヒト化したモノクローナル抗体HB1170) VH: QVQLVQSGSELKKPGASVKVSCKASGYTFTDFSMHWVRQAPGQGLKWMGWIDTETGEPTNADDFKGRFVFSLDTSVSTAYLQISSLKAEDTAVYYCARKDYELGTWFVYWGQGTTVTVSS VL: DIQMTQSPSSLSASVGDRVTITCRASQDISNFLNWYQQKPGKAPKLLIYYTSRLHSGVPSRFSGSGSGTDYTLTISSLQPEDFATYYCQQGKTLPRTFGGGTKVEIK | ~3000 |  |
| クローンHB351 (mouse monoclonal HBs antigen-binding antibody) (antibody, V domains shown, Mouse hybridoma antibody; The 91/92 assignment follows the order HB351, HB1170, HB1215 = (1), (2), (3); also called HB351; クローン351) VH: EIQLQQSGAELVKPGASVKLSCTASGFNIKDTYMYWVKQRPEQGLEWIGRIDPANGDTKYDPNFQGKATITADPSSNTAYLQLTSLTSEDTAVYYCARDDYDGAMDYWGRGTSVTVSS VL: QIVLTQSPAIMSASPGERVTMTCSASSTVNYMYWYQQKPGSSPRLLNFDTSNLASGVPVRFSGSGSGTSYSLTISRMEAEDAATYYCQRWSTYPPITFGSGTKLEIK |  | ~300 |
| クローンHB1215 (mouse monoclonal HBs antigen-binding antibody) (antibody, V domains shown, Mouse hybridoma antibody; also called HB1215; HB1215クローン) VH: QVQLKQSGPGLVQPSQSLSLTCTVSGFSLATYGVQWVRQSPGKGLEWLGVIWRGGNTDYNAAFMSRLSITKDNSKSQVFFKMNSLQGDDTAIYYCAKATYFDVWGAGTTVTVSS VL: QAVVTQESALTTSPGETVTLTCRSSTGAVTTSNFANWVQEKPDHLFTGLIGDTNNRAPGVPARFSGSLIGDKAALTITGAQTEDEAIYFCALWYNNWVFGGGTKLTVL |  | ~300 |
| クローンHB1170 (mouse monoclonal HBs antigen-binding antibody) (antibody, V domains shown, Mouse hybridoma antibody; also called HB1170; HB1170クローン) VH: QIQLVQSGPELKKPGETVKISCKASGYTFTDFSMHWVKQAPGKGLKWMGWIDTETGEPTNADDFKGRFVFSLETSASAAYLQIHNLKNDDTATYFCARKDYELGTWFVYWGQGTLVTVST VL: DIQMTQTTSSLSASLGDRVTISCRASQDISNFLNWYQQKPDGTVKLLIYYTSRLHSGVPSRFSGSGSGTDYSLTISNLEQEDFATYFCQQGKTLPRTFGGGTILEIK |  | ~3000 |
| ヒト化HB351 (antibody, V domains shown, also called humanized HB351; ヒト化したモノクローナル抗体HB351) VH: EVQLVQSGAEVKKPGATVKISCKVSGFNIKDTYMYWVQQAPGKGLEWIGRIDPANGDTKYDPNFQGRVTITADTSTDTAYMELSSLRSEDTAVYYCARDDYDGAMDYWGQGTLVTVSS VL: EIVLTQSPATLSLSPGERATLSCSASSTVNYMYWYQQKPGQAPRLLNFDTSNLASGIPARFSGSGSGTDFTLTISSLEPEDFAVYYCQRWSTYPPITFGQGTKLEIK | ~300 |  |
